B1: ErbB4 Kinase (intracellular domain, Cell Signaling Technology) (protein)
chain: RRKSIKKKRALRRFLETELVEPLTPSGTAPNQAQLRILKETELKRVKVLGSGAFGTVYKGIWVPEGETVKIPVAIKILNETTGPKANVEFMDEALIMASMDHPHLVRLLGVCLSPTIQLVTQLMPHGCLLEYVHEHKDNIGSQLLLNWCVQIAKGMMYLEERRLVHRDLAARNVLVKSPNHVKITDFGLARLLEGDEKEYNADGGKMPIKWMALECIHYRKFTHQSDVWSYGVTIWELMTFGGKPYDGIPTREIPDLLEKGERLPQPPICTIDVYMVMVKCWMIDADSRPKFKELAAEFSRMARDPQRYLVIQGDDRMKLPSPNDSKFFQNLLDEEDLEDMMDAEEYLVPQAFNIPPPIYTSRARIDSNRSEIGHSPPPAYTPMSGNQFVYRDGGFAAEQGVSVPYRAPTSTIPEAPVAQGATAEIFDDSCCNGTLRKPVAPHVQEDSSTQRYSADPTVFAPERSPRGELDEEGYMTPMRDKPKQEYLNPVEENPFVSRRKNGDLQALDNPEYHNASNGPPKAEDEYVNEPLYLNTFANTLGKAEYLKNNILSMPEKAKKAFDNPDYWNHSLPPRSTLQHPDYLQEYSTKYFYKQNGRIRPIVAENPEYLSEFSLKPGTVLPPPPYRHRNTVV
B2: IGF-1 Receptor Kinase (intracellular domain, Cell Signaling Technology) (protein)
chain: RKRNNSRLGNGVLYASVNPEYFSAADVYVPDEWEVAREKITMSRELGQGSFGMVYEGVAKGVVKDEPETRVAIKTVNEAASMRERIEFLNEASVMKEFNCHHVVRLLGVVSQGQPTLVIMELMTRGDLKSYLRSLRPEMENNPVLAPPSLSKMIQMAGEIADGMAYLNANKFVHRDLAARNCMVAEDFTVKIGDFGMTRDIYETDYYRKGGKGLLPVRWMSPESLKDGVFTTYSDVWSFGVVLWEIATLAEQPYQGLSNEQVLRFVMEGGLLDKPDNCPDMLFELMRMCWQYNPKMRPSFLEIISSIKEEMEPGFREVSFYYSEENKLPEPEELDLEPENMESVPLDPSASSSSLPLPDRHSGHKAENGPGPGVLVLRASFDERQPYAHMNGGRKNERALPLPQSSTC
B3: PDGF Receptor β Kinase (intracellular domain, Cell Signaling Technology) (protein)
chain: RYEIRWKVIESVSSDGHEYIYVDPMQLPYDSTWELPRDQLVLGRTLGSGAFGQVVEATAHGLSHSQATMKVAVKMLKSTARSSEKQALMSELKIMSHLGPHLNVVNLLGACTKGGPIYIITEYCRYGDLVDYLHRNKHTFLQHHSDKRRPPSAELYSNALPVGLPLPSHVSLTGESDGGYMDMSKDESVDYVPMLDMKGDVKYADIESSNYMAPYDNYVPSAPERTCRATLINESPVLSYMDLVGFSYQVANGMEFLASKNCVHRDLAARNVLICEGKLVKICDFGLARDIMRDSNYISKGSTFLPLKWMAPESIFNSLYTTLSDVWSFGILLWEIFTLGGTPYPELPMNEQFYNAIKRGYRMAQPAHASDEIYEIMQKCWEEKFEIRPPFSQLVLLLERLLGEGYKKKYQQVDEEFLRSDHPAILRSQARLPGFHGLRSPLDTSSVLYTAVQPNEGDNDYIIPLPDPKPEVADEGPLEGSPSLASSTLNEVNTSSTISCDSPLEPQDEPEPEPQLELQVEPEPELEQLPDSGCPAPRAEAEDSFL
B4: VEGF Receptor 1 Kinase (intracellular domain, Cell Signaling Technology) (protein)
chain: RKMKRSSSEIKTDYLSIIMDPDEVPLDEQCERLPYDASKWEFARERLKLGKSLGRGAFGKVVQASAFGIKKSPTCRTVAVKMLKEGATASEYKALMTELKILTHIGHHLNVVNLLGACTKQGGPLMVIVEYCKYGNLSNYLKSKRDLFFLNKDAALHMEPKKEKMEPGLEQGKKPRLDSVTSSESFASSGFQEDKSLSDVEEEEDSDGFYKEPITMEDLISYSFQVARGMEFLSSRKCIHRDLAARNILLSENNVVKICDFGLARDIYKNPDYVRKGDTRLPLKWMAPESIFDKIYSTKSDVWSYGVLLWEIFSLGGSPYPGVQMDEDFCSRLREGMRMRAPEYSTPEIYQIMLDCWHRDPKERPRFAELVEKLGDLLQANVQQDGKDYIPINAILTGNSGFTYSTPAFSEDFFKESISAPKFNSGSSDDVRYVNAFKFMSLERIKTFEELLPNATSMFDDYQGDSSTLLASPMLKRFTWTDSKPKASLKIDLRVTSKSKESGLSDVSRPSFCHSSCGHVSEGKRRFTYDHAELERKIACCSPPPDYNSVVLYSTPPI

Molecular target: GST-poly (Glu,Tyr) fused protein
Sequence (chain, as listed by the source): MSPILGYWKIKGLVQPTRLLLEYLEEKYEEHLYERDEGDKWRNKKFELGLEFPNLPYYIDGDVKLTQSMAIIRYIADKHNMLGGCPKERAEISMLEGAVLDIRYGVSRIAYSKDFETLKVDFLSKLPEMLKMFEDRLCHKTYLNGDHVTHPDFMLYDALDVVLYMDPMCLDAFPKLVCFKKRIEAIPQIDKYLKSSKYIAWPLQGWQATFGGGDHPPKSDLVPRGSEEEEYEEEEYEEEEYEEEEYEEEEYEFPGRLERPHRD

| Protein | band of phosphorylated GST-poly (Glu,Tyr) fused protein in Western blotting with anti-phosphotyrosine antibody |
| --- | --- |
| B1 | In “+” of “i” to “vii”, a single band was seen at positions where a phosphorylated GST-poly (Glu,Tyr) fused protein appears |
| B2 | In “+” of “i” to “vii”, a single band was seen at positions where a phosphorylated GST-poly (Glu,Tyr) fused protein appears |
| B3 | In “+” of “i” to “vii”, a single band was seen at positions where a phosphorylated GST-poly (Glu,Tyr) fused protein appears |
| B4 | In “+” of “i” to “vii”, a single band was seen at positions where a phosphorylated GST-poly (Glu,Tyr) fused protein appears |

Source: patent US20070238141
